{"source": "patent US20070162998A1", "biological_target": "papain (cysteine protease) (UniProt P00784)", "sequence (P00784 134-345 limits assumed)": "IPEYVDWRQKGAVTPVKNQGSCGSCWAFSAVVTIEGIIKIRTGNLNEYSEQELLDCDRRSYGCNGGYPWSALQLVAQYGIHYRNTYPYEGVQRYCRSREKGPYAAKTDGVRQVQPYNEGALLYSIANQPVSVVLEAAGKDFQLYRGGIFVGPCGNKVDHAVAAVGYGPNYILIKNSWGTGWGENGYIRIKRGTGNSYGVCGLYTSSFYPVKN", "experiment": "cell-based or functional assay"}
{"substance": "recombinant CeCPI protein (taro cysteine protease inhibitor, tarocystatin)", "values": [{"measurement": "residual protease activity of papain on 0.1% gelatin/SDS-PAGE", "result": 100}]}
